T1: human C1s deletion mutant 2 (NHC) (human, UniProt P09871 16-437)
T1 construct: C-terminal 6xHis tag; also called HuC1s(NHC); huC1sNHC
T1 sequence: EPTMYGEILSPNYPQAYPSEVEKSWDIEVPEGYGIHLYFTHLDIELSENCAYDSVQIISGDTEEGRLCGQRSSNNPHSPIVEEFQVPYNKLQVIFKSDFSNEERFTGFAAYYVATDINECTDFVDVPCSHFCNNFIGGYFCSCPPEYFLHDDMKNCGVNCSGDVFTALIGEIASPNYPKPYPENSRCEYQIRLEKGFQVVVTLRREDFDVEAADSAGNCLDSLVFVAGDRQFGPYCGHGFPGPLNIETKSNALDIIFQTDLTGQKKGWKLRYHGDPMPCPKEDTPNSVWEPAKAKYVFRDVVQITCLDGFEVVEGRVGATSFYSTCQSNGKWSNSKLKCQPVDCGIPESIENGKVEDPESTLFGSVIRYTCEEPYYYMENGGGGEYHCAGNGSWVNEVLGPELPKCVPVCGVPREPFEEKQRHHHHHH

T2: human C1s deletion mutant 1 (M151) (human) (UniProt P09871)
T2 sequence: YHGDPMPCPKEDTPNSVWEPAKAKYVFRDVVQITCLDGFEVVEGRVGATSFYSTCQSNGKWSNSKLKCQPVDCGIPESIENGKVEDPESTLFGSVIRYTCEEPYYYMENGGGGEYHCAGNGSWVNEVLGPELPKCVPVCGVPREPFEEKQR

T3: active human C1s (CompTech A104 C1s Enzyme) (human, UniProt P09871 16-688)
T3 construct: also called human active C1s; active C1s protein
T3 sequence (looked up): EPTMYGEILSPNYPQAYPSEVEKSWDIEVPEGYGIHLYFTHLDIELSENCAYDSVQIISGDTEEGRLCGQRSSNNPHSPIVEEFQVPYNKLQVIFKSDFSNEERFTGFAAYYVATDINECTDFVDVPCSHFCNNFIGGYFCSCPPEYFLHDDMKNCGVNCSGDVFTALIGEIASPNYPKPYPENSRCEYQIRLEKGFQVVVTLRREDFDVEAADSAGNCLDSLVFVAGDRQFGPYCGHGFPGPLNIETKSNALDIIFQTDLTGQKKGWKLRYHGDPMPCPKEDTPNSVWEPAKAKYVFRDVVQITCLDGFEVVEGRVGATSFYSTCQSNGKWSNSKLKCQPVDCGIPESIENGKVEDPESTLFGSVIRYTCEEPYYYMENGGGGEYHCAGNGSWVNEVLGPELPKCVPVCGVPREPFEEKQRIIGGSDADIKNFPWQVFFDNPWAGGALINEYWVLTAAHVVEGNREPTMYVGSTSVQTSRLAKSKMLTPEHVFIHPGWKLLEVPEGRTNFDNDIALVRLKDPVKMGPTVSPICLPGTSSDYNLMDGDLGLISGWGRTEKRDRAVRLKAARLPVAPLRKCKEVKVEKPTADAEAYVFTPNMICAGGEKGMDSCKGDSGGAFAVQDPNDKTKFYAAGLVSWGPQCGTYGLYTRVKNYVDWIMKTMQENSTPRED

T4: human C1s proenzyme (CompTech A103) (human, UniProt P09871 16-688)
T4 construct: also called proenzyme human C1s (native C1s)
T4 sequence (looked up): T3 sequence (looked up)

B1: Anti-C1s antibody 2-7 (antibody, human IgG1, kappa, V domains shown)
VH: EVKLEESGGGLVPPGGSMKLSCVASGFTFSNYFMNWVRQSPEKGLEWVAEIRLKFTNYATHYAESVEGRFTISRDDSKSSVYLQMNNLRAEDTGIYYCTRDYGSRNGYFDYWGQGTTLTVSS
VL: DIVMTQAAPSVPVTPGESVSISCRSSKSLLHSNGNTFLYWFLQRPGQSPQLLIYRMSNLASGVPDRFSGSGSGTAFTLRVSRVEAEDVGIYYCMQHLEYPYTFGGGTKLEIKT
notes: the HC/LC entries may hold it too; also called clone 2-7
B2: Anti-C1s antibody 2-8 (antibody, V domains shown)
VH: EVQLQQSGAELVRPGALVKLSCKASGFNIKEYYMHWVKQRPEQGLEWIGWIDPENGDTIYDPKFQGKASITADTSSNTAYLQLSSLTSEDTAVYYCARSRLFFAYWGQGTLVTVSA
VL: DIVMTQSHKFMSTSVGDRVSFTCKASQDVRTAVDWYQQKPGQSPKLLIYSASYRYTGVPDRFTGTGSGTDFTFTISSVQAEDLAVYFCQQQYTTPYTFGGGTKLEIKT
notes: the HC/LC entries may hold it too; also called clone 2-8
B3: Anti-C1s antibody hz2-7(H1L2) (antibody, V domains shown)
VH: EVQLLESGGGLVQPGGSLRLSCAASGFTFSNYFMNWVRQAPGKGLEWVSEIRLKFTNYATHYADSVKGRFTISRDDSKSTLYLQMNSLRAEDTAVYYCTRDYGSRNGYFDYWGQGTLVTVSS
VL: DIVMTQTPLSLPVTPGEPASISCRSSKSLLHSNGNTFLYWFLQKPGQSPQLLIYRMSNLASGVPDRFSGSGSGTDFTLKISRVEAEDVGVYYCMQHLEYPYTFGGGTKLEIKR
notes: Humanized, human IgG1 / kappa; also called hz2-7(1L2)
B4: Anti-C1s antibody hz2-8 (H1L2 G80A/T82A) (antibody, V domains shown)
VH: QVQLVQSGAEVKKPGASVKVSCKASGFNIKEYYMHWVRQAPEQGLEWMGWIDPENADAIYAQKFQGRVTITADTSTNTAYMELSSLRSEDTAVYYCARSRLFFAYWGQGTLVTVSS
VL: DIQMTQSPKSLSASVGDRVTITCRASQDVRTALDWYQQKPGQSPKLLIYSASYRYSGVPSRFSGSGSGTDFTLTISSLQPEDFATYYCQQQYTTPYTFGQGTKLEIKR
notes: Humanized variant with G80A and T82A in HC CDR2 (already in the entry), human IgG1 / kappa

Tests used:
[1] = biological target: T1, human C1s deletion mutant 2 (NHC); assay: ELISA, plate coated with 200 ng/well HuC1s(NHC), OD450nm
Experimental: ELISA was carried out by first coating 96-well plates with 200 ng/well of full-length or truncated C1s proteins overnight. The next morning, plates were blocked with SuperBlock T20 blocking buffer (Thermo Scientific 37536) for 1 h with gentle shaking. Then, various concentrations of anti-C1s antibodies diluted in SuperBlock T20 blocking buffer were added to the plates and incubated for 1 h with gentle shaking. Mouse IgG (Sigma-Aldrich 15381) and human IgG1 (BioXCell BP0297) were used as negative controls. The plates were washed before incubating with HRP conjugated secondary antibodies diluted in SuperBlock T20 blocking buffer (goat anti-mouse IgG (H+L) cross-adsorbed secondary antibody HRP (Invitrogen G-21040) or goat anti-human IgG antibody, HRP conjugate (Millipore AP309P)) for 1 h with gentle shaking. At last, the plates were washed and color developed with ELISA liquid HRP substrate (Sigma-Aldrich), followed by stopping the reaction with addition of 1M H₂SO₄ in the same volume as the ELISA liquid substrate. Bound antibody was measured by absorbance at OD₄₅₀ₙₘ.

[2] = biological target: T2, human C1s deletion mutant 1 (M151) (human); assay: ELISA, plate coated with 200 ng/well HuC1s(M151), OD450nm
[3] = biological target: T3, active human C1s (CompTech A104 C1s …); assay: ELISA, C1s coated on plate
Experimental: (§1) ELISA was carried out by first coating 96-well plates with 200 ng/well of human active C1s (CompTech A104, FIG. 3F) or human C1s proenzyme (CompTech A103, FIG. 3G) proteins overnight. The next morning, plates were blocked with SuperBlock T20 blocking buffer (Thermo Fisher Scientific Inc., Catalog No. 37536) for 1 h with gentle shaking. Then, various concentrations of anti-C1s antibodies diluted in SuperBlock T20 blocking buffer were added to the plates and incubated for 1 h with gentle shaking. Human IgG1 (BioXCell BP0297) was used as a negative control. The plates were washed before incubating with HRP conjugated secondary antibodies diluted in SuperBlock T20 blocking buffer (goat anti-human IgG antibody, HRP conjugate (Millipore AP309P)) for 1 h with gentle shaking. At last, the plates were washed and color developed with ELISA liquid substrate (Sigma-Aldrich), followed by stopping the reaction with addition of the same volume of […] 1M H₂SO₄. Bound antibody was measured by absorbance at OD₄₅₀ₙₘ.
(§2) The EC₅₀ for each antibody and target combination was determined as follows: for antibody 2-7, EC₅₀ for human active C1s is 12 ng/ml and EC₅₀ for human C1s proenzyme is 9 ng/ml; for antibody 2-8, EC₅₀ for human active C1s is 12 ng/ml and EC₅₀ for human C1s proenzyme is 10 ng/ml; for variant hz2-7(1L2), EC₅₀ for human active C1s is 13 ng/ml and EC₅₀ for human C1s proenzyme is 12 ng/ml; and for variant hz2-8(H1L2 G80A/T82A), EC₅₀ for human active C1s is 10 ng/ml and EC₅₀ for human C1s proenzyme is 8 ng/ml.

[4] = biological target: T4, human C1s proenzyme (CompTech A103); assay: ELISA, C1s coated on plate
Experimental: as §1, §2

| Binder | EC50 [1] | EC50 [2] | EC50 [3] | EC50 [4] |
| --- | --- | --- | --- | --- |
| B1 | 0.009 µg/mL | 0.013 µg/mL | 0.012 µg/mL | 0.009 µg/mL |
| B2 | 0.012 µg/mL | 0.018 µg/mL | 0.012 µg/mL | 0.01 µg/mL |
| B3 | 0.006 µg/mL | 0.008 µg/mL | 0.013 µg/mL | 0.012 µg/mL |
| B4 | – | – | 0.01 µg/mL | 0.008 µg/mL |
